Measured values as given in patent US20240158503A1 (PIERRE FABRE MEDICAMENT, published 2024).

Assays:
[1] = target: T1, human VSIG4 overexpressed on HEK293E cells (human, UniProt Q9Y279 20-399); assay: flow cytometry on HEK293E cells expressing human VSIG4, antibody titration
T1 construct: whole, on cells; also called hVSIG4/HEK293E; huVSIG4

[2] = target: T2, hVSIG4(S)-hFc (VSIG4(S)-Fc) (human); assay: western blot, 100 ng hVSIG4 short-hFc
T2 construct: also called hVSIG4 short-hFc (S); VGIG4(S)-Fc

[3] = target: T3, human His-tagged VSIG4 short isoform (K00400002-BR1-117) (human, UniProt Q9Y279 20-283); assay: HTRF competition: His-tagged VSIG4 short isoform with C3b-d2
T3 construct: also called hVSIG4-His (short form); not shown: His tag (detected with anti-6His)

[4] = target: T3, human His-tagged VSIG4 short isoform …; assay: HTRF competition: His-tagged VSIG4 short isoform with iC3b
VSIG4-M4-Fc = target: T4, VSIG4-M4-Fc (human); assay: scFv-phage ELISA on coated Fc fusion (100 ng/well), anti-M13-HRP, A490
T4 construct: 69; Leader left out; 70

VSIG4-M2-Fc = target: T5, VSIG4-M2-Fc (human); assay: as above
T5 construct: 63; Leader left out; 64

VSIG4-M1-Fc = target: T6, VSIG4-M1-Fc (human); assay: as above
T6 construct: Short form carrying E24T, V25A, E27H, V29L, T30A; Structure [LS]-QGAVGA-[VSIG4]-LAASAAS-[FC], leader left out; 61

[5] = target: T7, hVSIG4-Fc (long VSIG4 form, epitope-mapping construct) (human); assay: as above
T7 construct: 55

VSIG4-M5-Fc = target: T8, VSIG4-M5-Fc (human); assay: as above
T8 construct: 72; Leader left out; 73

VSIG4-M3-Fc = target: T9, VSIG4-M3-Fc (human); assay: as above
T9 construct: 66; Leader left out; 67

VSIG4-M6-Fc = target: T10, VSIG4-M6-Fc (human); assay: as above
T10 construct: 75; Leader left out; 76

[6] = target: T11, hVSIG4-V-Fc (short VSIG4 form, epitope-mapping construct) (human); assay: as above
T11 construct: 58; All M1-M8 mutations were made in this short form

VSIG4-M8-Fc [7] = target: T12, VSIG4-M8-Fc (human); assay: as above
T12 construct: 81; Leader left out; 82

VSIG4-M7-Fc = target: T13, VSIG4-M7-Fc (human); assay: scFv-phage ELISA on coated Fc fusion (100 ng/well)
T13 construct: 78; Leader left out; 79

VSIG4-M8-Fc [8] = target: T12, VSIG4-M8-Fc; assay: scFv-phage ELISA on coated Fc fusion (100 ng/well)

B1: SA2281 (full-length human anti-VSIG4 monoclonal antibody, IgG form) (antibody, V domains shown)
VH: QVQLVESGGGVVQPGRSLRVSCAASGFTFSTYAMHWVRQAPGKGLEWLAVVSHDGTYKYYGDSVKGRFSISRDNSKNTLYLQMNSLRSEDTAVYYCGRHAAGSSFDYWGQGTVVTVSS
VL: DIQMTQSPSSLSASVGDRVTITCQASRDISNYLNWYQQKPGKAPKLLIYKTSNLQRGVPSRFSGSGSGTEFTLTISRLQPDDSATYYCQQSYRTPYTFGQGTKLEIK
notes: also called Mab SA2281
- EC50 [1]: 0.461 nM
- binding result [2]: binds
- IC50 [3]: 7.3 nM
- IC50 [4]: 9.5 nM

B2: SA2297 (full-length human anti-VSIG4 monoclonal antibody, IgG form) (antibody, V domains shown)
VH: QVQLVESGGGVVQPGGSLRLSCAASGFIFSDYYMSWVRQAPGKGLEWVSYISPSGYTISYADSVKGRFTISRDNSKNSLYLQMNSLRAEDTAVYYCARRFSSSWSGYFDYWGHGALVTVSS
VL: DIQMTQSPSTLSASVGDRVTITCRASQNINRWLAWYQQKPGKAPKLLIYKAFRLHSGVPSRFSGSGSGTEFTLTITSLQPDDFATYYCQQYLSYSSSIFGQGTKVEIK
notes: also called Mab SA2297
- EC50 [1]: 1.18 nM
- binding result [2]: binds
- IC50 [3]: 16.4 nM
- IC50 [4]: 17.9 nM

B3: SA2281 scFv-phage (original scFv version of SA2281) (scFv, V domains shown)
VH: B1 VH
VL: B1 VL
- binding result (VSIG4-M4-Fc): binds
- binding result (VSIG4-M2-Fc): binds
- binding result (VSIG4-M1-Fc): binds
- binding result [5]: binds
- binding result (VSIG4-M5-Fc): binds
- binding result (VSIG4-M3-Fc): binds
- binding result (VSIG4-M6-Fc): binds
- binding result [6]: binds
- binding result (VSIG4-M8-Fc [7]): binds
- binding result (VSIG4-M7-Fc): no binding

B4: SA2297 scFv-phage (original scFv version of SA2297) (scFv, V domains shown)
VH: B2 VH
VL: B2 VL
- binding result (VSIG4-M4-Fc): binds
- binding result (VSIG4-M2-Fc): binds
- binding result (VSIG4-M1-Fc): binds
- binding result [5]: binds
- binding result (VSIG4-M5-Fc): binds
- binding result (VSIG4-M3-Fc): binds
- binding result (VSIG4-M6-Fc): binds
- binding result [6]: binds
- binding result (VSIG4-M7-Fc): no binding
- binding result (VSIG4-M8-Fc [8]): no binding
